B1: TRF2 (other, human, UniProt Q15554 1-542, looked up)
chain: MAAGAGTAGPASGPGVVRDPAASQPRKRPGREGGEGARRSDTMAGGGGSSDGSGRAAGRRASRSSGRARRGRHEPGLGGPAERGAGEARLEEAVNRWVLKFYFHEALRAFRGSRYGDFRQIRDIMQALLVRPLGKEHTVSRLLRVMQCLSRIEEGENLDCSFDMEAELTPLESAINVLEMIKTEFTLTEAVVESSRKLVKEAAVIICIKNKEFEKASKILKKHMSKDPTTQKLRNDLLNIIREKNLAHPVIQNFSYETFQQKMLRFLESHLDDAEPYLLTMAKKALKSESAASSTGKEDKQPAPGPVEKPPREPARQLRNPPTTIGMMTLKAAFKTLSGAQDSEAAFAKLDQKDLVLPTQALPASPALKNKRPRKDENESSAPADGEGGSELQPKNKRMTISRLVLEEDSQSTEPSAGLNSSQEAASAPPSKPTVLNQPLPGEKNPKVPKGKWNSSNGVEEKETWVEEDELFQVQAAPDEDSTTNITKKQKWTVEESEWVKAGVQKYGEGNWAAISKNYPFVNRTAVMIKDRWRTMKRLGMN
B2: TRF1 (other, human, UniProt P54274 2-439, looked up)
chain: AEDVSSAAPSPRGCADGRDADPTEEQMAETERNDEEQFECQELLECQVQVGAPEEEEEEEEDAGLVAEAEAVAAGWMLDFLCLSLCRAFRDGRSEDFRRTRNSAEAIIHGLSSLTACQLRTIYICQFLTRIAAGKTLDAQFENDERITPLESALMIWGSIEKEHDKLHEEIQNLIKIQAIAVCMENGNFKEAEEVFERIFGDPNSHMPFKSKLLMIISQKDTFHSFFQHFSYNHMMEKIKSYVNYVLSEKSSTFLMKAAAKVVESKRTRTITSQDKPSGNDVEMETEANLDTRKSVSDKQSAVTESSEGTVSLLRSHKNLFLSKLQHGTQQQDLNKKERRVGTPQSTKKKKESRRATESRIPVSKSQPVTPEKHRARKRQAWLWEEDKNLRSGVRKYGEGNWSKILLHYKFNNRTSVMLKDRWRTMKKLKLISSDSED
B3: Rap1 (other, human, UniProt Q9NYB0 2-399, looked up)
chain: AEAMDLGKDPNGPTHSSTLFVRDDGSSMSFYVRPSPAKRRLSTLILHGGGTVCRVQEPGAVLLAQPGEALAEASGDFISTQYILDCVERNERLELEAYRLGPASAADTGSEAKPGALAEGAAEPEPQRHAGRIAFTDADDVAILTYVKENARSPSSVTGNALWKAMEKSSLTQHSWQSLKDRYLKHLRGQEHKYLLGDAPVSPSSQKLKRKAEEDPEAADSGEPQNKRTPDLPEEEYVKEEIQENEEAVKKMLVEATREFEEVVVDESPPDFEIHITMCDDDPPTPEEDSETQPDEEEEEEEEKVSQPEVGAAIKIIRQLMEKFNLDLSTVTQAFLKNSGELEATSAFLASGQRADGYPIWSRQDDIDLQKDDEDTREALVKKFGAQNVARRIEFRKK
notes: also called human Rap1

molecular target: T1, human Rif1 (human, UniProt Q5UIP0 1-2472); assay: co-immunoprecipitation
T1 construct: Endogenous protein in extracts or fixed cells of human cell lines (e.g. HeLa); It is seen as a >250 kDa polypeptide; the predicted protein has 2472 amino acids and 274 kDa; also called hRif1
T1 sequence (Q5UIP0 other isoform, or with tags, fused parts or gaps limits assumed): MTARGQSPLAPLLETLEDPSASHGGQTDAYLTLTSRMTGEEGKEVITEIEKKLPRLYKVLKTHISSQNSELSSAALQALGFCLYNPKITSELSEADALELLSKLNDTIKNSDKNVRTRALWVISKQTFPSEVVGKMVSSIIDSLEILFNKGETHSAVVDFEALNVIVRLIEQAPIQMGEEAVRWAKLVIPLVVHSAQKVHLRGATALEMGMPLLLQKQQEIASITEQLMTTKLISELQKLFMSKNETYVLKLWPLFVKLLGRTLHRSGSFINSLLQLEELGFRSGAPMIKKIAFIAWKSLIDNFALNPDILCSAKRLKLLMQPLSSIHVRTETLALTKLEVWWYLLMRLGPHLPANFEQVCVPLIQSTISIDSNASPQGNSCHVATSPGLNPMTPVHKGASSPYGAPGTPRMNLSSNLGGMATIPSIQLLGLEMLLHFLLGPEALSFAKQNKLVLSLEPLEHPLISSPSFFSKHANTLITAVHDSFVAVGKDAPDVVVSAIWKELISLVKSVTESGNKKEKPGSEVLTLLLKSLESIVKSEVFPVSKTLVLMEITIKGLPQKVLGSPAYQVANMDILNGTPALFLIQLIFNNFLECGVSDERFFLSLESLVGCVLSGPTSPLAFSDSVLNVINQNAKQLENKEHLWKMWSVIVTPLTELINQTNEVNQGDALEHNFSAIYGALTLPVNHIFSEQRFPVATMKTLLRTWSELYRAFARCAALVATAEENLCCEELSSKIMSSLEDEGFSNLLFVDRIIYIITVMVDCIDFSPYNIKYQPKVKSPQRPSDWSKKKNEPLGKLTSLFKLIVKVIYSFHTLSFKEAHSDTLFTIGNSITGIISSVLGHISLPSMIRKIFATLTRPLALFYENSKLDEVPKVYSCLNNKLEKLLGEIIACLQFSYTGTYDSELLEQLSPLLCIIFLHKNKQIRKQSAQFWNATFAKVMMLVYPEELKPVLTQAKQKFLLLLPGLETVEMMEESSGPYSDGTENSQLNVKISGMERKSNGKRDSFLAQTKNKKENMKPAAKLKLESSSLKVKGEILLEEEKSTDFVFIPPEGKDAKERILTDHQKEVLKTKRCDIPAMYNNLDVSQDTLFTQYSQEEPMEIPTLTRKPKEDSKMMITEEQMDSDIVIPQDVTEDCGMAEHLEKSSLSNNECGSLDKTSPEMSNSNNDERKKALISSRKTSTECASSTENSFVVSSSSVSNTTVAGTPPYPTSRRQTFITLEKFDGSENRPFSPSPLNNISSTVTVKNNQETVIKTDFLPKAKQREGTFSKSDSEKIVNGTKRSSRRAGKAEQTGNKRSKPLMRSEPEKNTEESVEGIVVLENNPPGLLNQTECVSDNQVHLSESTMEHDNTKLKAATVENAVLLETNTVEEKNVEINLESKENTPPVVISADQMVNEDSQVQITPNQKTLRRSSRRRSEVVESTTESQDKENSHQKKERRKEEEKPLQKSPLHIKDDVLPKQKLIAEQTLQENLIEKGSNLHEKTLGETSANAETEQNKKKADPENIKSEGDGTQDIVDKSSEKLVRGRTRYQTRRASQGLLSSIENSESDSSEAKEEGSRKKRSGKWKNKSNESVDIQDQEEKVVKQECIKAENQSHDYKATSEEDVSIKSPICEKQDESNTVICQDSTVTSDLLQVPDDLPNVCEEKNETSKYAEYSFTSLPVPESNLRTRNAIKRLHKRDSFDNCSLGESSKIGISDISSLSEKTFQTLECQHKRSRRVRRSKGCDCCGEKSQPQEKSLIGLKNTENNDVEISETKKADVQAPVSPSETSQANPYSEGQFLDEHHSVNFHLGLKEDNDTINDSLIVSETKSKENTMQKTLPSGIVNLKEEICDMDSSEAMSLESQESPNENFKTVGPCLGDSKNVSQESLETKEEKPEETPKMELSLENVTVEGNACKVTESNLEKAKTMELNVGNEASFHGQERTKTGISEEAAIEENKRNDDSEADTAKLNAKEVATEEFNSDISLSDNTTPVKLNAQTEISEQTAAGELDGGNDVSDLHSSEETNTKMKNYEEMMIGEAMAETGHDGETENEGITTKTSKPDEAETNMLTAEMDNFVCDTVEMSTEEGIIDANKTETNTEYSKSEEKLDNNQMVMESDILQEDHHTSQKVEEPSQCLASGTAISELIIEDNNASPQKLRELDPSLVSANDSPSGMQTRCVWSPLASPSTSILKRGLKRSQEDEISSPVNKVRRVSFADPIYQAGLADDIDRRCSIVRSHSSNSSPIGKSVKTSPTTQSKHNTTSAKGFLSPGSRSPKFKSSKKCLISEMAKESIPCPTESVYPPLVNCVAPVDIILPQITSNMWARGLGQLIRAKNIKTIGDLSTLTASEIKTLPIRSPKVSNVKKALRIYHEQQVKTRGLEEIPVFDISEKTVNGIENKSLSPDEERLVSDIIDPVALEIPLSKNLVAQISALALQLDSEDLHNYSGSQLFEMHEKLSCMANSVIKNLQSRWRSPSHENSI

binding result	Binder
no binding	B1
no binding	B2
no binding	B3

From patent US20060051737A1 (ROCKEFELLER UNIVERSITY, published 2006)
